Laboratory results reported in paper PMC6386767, “Characterization of recombinant fructose-1,6-bisphosphatase gene mutations: evidence of inhibition/activation of FBPase protein by gene mutation” (Bioscience Reports, 2019).

Key:
Assay type in all cases: binding
pig kidney FBPase K112A = target: T1, pig kidney FBPase K112A (Sus scrofa, UniProt P00636, K113A); assay: Differential scanning fluorimetry, K112A mutant; conditions: no ligand
T1 construct: His6 (C); made in house; host or cells: Escherichia coli BL21 (DE3)
T1 sequence (P00636 1-338 K113A): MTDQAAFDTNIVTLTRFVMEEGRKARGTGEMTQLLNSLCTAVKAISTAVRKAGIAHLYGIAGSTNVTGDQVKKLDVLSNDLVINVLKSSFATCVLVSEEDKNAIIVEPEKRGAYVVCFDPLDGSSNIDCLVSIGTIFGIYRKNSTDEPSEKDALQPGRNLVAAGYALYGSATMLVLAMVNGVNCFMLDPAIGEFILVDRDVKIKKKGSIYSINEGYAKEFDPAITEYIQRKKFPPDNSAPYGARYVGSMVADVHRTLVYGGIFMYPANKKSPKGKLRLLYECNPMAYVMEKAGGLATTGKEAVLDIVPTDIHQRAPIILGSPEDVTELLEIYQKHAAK
Protocol: (§1) Differential scanning fluorimetry (DSF) assays were designed and implemented to run on WT and each mutant for the purpose of determining relative stabilities by melting point, and to detect structural changes in the enzymes upon ligand binding. Thermal shift assays were performed with a Light Cycler 96 System Real-Time PCR machine (Roche) using Sypro-Orange dye (Invitrogen) and thermal ramping (0.25°C per min between 20 and 85°C). […] Data were processed using the Boltzmann equation to generate sigmoidal denaturation curves, and average Tm/ΔTm values were calculated as previously described using GraphPad Prism software package.

pig kidney FBPase WT = target: T2, pig kidney FBPase WT (Sus scrofa, UniProt P00636); assay: Differential scanning fluorimetry, WT enzyme; conditions: enzyme WT 5 µM, no ligand
T2 construct: His6 (C); made in house; host or cells: Escherichia coli BL21 (DE3)
T2 sequence (P00636 1-338): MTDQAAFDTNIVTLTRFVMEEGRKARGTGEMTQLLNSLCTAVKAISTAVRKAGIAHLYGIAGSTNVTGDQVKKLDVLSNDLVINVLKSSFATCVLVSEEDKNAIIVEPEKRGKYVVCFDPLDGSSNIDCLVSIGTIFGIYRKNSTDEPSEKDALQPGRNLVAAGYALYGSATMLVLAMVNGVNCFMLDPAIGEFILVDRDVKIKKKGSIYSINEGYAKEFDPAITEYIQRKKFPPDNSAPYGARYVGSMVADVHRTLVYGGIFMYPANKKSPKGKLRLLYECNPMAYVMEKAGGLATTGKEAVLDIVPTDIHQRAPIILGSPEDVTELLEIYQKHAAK
Protocol: as §1

pig kidney FBPase Y164A = target: T3, pig kidney FBPase Y164A (Sus scrofa, UniProt P00636, Y165A); assay: Differential scanning fluorimetry, Y164A mutant; conditions: enzyme Y164A 5 µM, no ligand
T3 construct: His6 (C); made in house; host or cells: Escherichia coli BL21 (DE3)
T3 sequence (P00636 1-338 Y165A): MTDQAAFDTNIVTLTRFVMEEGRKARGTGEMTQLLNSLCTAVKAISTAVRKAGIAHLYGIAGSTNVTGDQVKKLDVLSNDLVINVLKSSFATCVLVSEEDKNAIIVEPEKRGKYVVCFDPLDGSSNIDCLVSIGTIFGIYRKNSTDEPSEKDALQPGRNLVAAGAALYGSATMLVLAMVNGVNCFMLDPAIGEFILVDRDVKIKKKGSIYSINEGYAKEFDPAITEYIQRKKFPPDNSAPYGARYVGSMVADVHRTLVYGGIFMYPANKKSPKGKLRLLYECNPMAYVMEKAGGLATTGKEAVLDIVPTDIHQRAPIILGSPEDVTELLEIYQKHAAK
Protocol: as §1

pig kidney FBPase M177A = target: T4, pig kidney FBPase M177A (Sus scrofa, UniProt P00636, M178A); assay: Differential scanning fluorimetry, M177A mutant; conditions: enzyme M177A 5 µM, no ligand
T4 construct: His6 (C); made in house; host or cells: Escherichia coli BL21 (DE3)
T4 sequence (P00636 1-338 M178A): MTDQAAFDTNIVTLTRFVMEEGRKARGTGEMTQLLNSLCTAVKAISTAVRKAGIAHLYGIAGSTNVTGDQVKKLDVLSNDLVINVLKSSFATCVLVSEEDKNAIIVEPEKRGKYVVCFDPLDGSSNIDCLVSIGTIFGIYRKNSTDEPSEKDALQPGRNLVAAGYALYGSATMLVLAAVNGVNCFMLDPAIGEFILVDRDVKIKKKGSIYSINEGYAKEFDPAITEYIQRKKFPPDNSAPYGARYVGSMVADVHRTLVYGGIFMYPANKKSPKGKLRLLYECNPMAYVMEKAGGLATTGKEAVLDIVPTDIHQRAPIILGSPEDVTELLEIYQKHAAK
Protocol: as §1

pig kidney FBPase Y113A = target: T5, pig kidney FBPase Y113A (Sus scrofa, UniProt P00636, Y114A); assay: Differential scanning fluorimetry, Y113A mutant; conditions: no ligand
T5 construct: His6 (C); made in house; host or cells: Escherichia coli BL21 (DE3)
T5 sequence (P00636 1-338 Y114A): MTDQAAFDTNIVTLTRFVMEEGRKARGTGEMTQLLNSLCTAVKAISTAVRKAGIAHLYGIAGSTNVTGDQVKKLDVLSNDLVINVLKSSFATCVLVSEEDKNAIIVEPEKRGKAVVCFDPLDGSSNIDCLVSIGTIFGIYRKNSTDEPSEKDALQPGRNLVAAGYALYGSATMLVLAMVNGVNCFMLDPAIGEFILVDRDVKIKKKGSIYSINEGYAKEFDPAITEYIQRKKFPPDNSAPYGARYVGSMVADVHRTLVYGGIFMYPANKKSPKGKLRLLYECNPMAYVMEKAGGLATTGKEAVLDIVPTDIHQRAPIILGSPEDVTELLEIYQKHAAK
Protocol: as §1

pig kidney FBPase L73A = target: T6, pig kidney FBPase L73A (Sus scrofa, UniProt P00636, L74A); assay: Differential scanning fluorimetry, L73A mutant; conditions: enzyme L73A 5 µM, no ligand
T6 construct: His6 (C); made in house; host or cells: Escherichia coli BL21 (DE3)
T6 sequence (P00636 1-338 L74A): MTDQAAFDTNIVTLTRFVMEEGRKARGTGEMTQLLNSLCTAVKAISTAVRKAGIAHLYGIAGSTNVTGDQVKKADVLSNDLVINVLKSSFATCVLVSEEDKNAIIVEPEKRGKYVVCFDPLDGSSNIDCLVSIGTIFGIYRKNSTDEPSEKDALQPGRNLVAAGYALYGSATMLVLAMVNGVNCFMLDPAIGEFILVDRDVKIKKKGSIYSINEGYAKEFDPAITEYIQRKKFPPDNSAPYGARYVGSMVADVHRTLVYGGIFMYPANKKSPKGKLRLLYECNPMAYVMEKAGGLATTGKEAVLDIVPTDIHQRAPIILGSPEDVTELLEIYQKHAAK
Protocol: as §1

pig kidney FBPase M248D = target: T7, pig kidney FBPase M248D (Sus scrofa, UniProt P00636, M249D); assay: Differential scanning fluorimetry, M248D mutant; conditions: enzyme M248D 5 µM, no ligand
T7 construct: His6 (C); made in house; host or cells: Escherichia coli BL21 (DE3)
T7 sequence (P00636 1-338 M249D): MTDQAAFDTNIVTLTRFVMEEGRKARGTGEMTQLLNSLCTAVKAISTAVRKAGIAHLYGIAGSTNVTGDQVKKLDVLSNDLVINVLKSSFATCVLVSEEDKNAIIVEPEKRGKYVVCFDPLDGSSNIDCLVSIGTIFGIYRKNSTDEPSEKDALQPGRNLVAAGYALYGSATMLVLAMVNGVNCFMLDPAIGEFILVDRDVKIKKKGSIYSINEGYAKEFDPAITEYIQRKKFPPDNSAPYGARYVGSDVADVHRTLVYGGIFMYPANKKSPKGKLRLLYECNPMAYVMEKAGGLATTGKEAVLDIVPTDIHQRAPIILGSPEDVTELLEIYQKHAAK
Protocol: as §1

B1: K112A: pig kidney FBPase mutant, lysine to alanine, AMP-binding site (protein, UniProt P00636 2-338, looked up, variant K112A)
Fructose-1,6-bisphosphatase 1: TDQAAFDTNIVTLTRFVMEEGRKARGTGEMTQLLNSLCTAVKAISTAVRKAGIAHLYGIAGSTNVTGDQVKKLDVLSNDLVINVLKSSFATCVLVSEEDKNAIIVEPEKRGAYVVCFDPLDGSSNIDCLVSIGTIFGIYRKNSTDEPSEKDALQPGRNLVAAGYALYGSATMLVLAMVNGVNCFMLDPAIGEFILVDRDVKIKKKGSIYSINEGYAKEFDPAITEYIQRKKFPPDNSAPYGARYVGSMVADVHRTLVYGGIFMYPANKKSPKGKLRLLYECNPMAYVMEKAGGLATTGKEAVLDIVPTDIHQRAPIILGSPEDVTELLEIYQKHAAK
Pig kidney FBPase K112A; enzyme K112A 5 µM
  melting point, No Ligand: 51.0 (± 2.50) °C
Pig kidney FBPase K112A; enzyme K112A
  decrease in melting temperature compared with WT: approximately 6 °

B2: WT: recombinant wild-type pig kidney FBPase enzyme (protein, UniProt P00636 2-338, looked up)
Fructose-1,6-bisphosphatase 1: TDQAAFDTNIVTLTRFVMEEGRKARGTGEMTQLLNSLCTAVKAISTAVRKAGIAHLYGIAGSTNVTGDQVKKLDVLSNDLVINVLKSSFATCVLVSEEDKNAIIVEPEKRGKYVVCFDPLDGSSNIDCLVSIGTIFGIYRKNSTDEPSEKDALQPGRNLVAAGYALYGSATMLVLAMVNGVNCFMLDPAIGEFILVDRDVKIKKKGSIYSINEGYAKEFDPAITEYIQRKKFPPDNSAPYGARYVGSMVADVHRTLVYGGIFMYPANKKSPKGKLRLLYECNPMAYVMEKAGGLATTGKEAVLDIVPTDIHQRAPIILGSPEDVTELLEIYQKHAAK
Pig kidney FBPase WT
  melting point, No Ligand: 56.0 (± 2.75) °C

B3: Y164A: pig kidney FBPase mutant, tyrosine to alanine, interfacial (protein, UniProt P00636 2-338, looked up, variant Y164A)
Fructose-1,6-bisphosphatase 1: TDQAAFDTNIVTLTRFVMEEGRKARGTGEMTQLLNSLCTAVKAISTAVRKAGIAHLYGIAGSTNVTGDQVKKLDVLSNDLVINVLKSSFATCVLVSEEDKNAIIVEPEKRGKYVVCFDPLDGSSNIDCLVSIGTIFGIYRKNSTDEPSEKDALQPGRNLVAAGAALYGSATMLVLAMVNGVNCFMLDPAIGEFILVDRDVKIKKKGSIYSINEGYAKEFDPAITEYIQRKKFPPDNSAPYGARYVGSMVADVHRTLVYGGIFMYPANKKSPKGKLRLLYECNPMAYVMEKAGGLATTGKEAVLDIVPTDIHQRAPIILGSPEDVTELLEIYQKHAAK
Pig kidney FBPase Y164A
  melting point, No Ligand: 55.4 (± 2.25) °C

B4: M177A: pig kidney FBPase mutant, methionine to alanine, interfacial (protein, UniProt P00636 2-338, looked up, variant M177A)
Fructose-1,6-bisphosphatase 1: TDQAAFDTNIVTLTRFVMEEGRKARGTGEMTQLLNSLCTAVKAISTAVRKAGIAHLYGIAGSTNVTGDQVKKLDVLSNDLVINVLKSSFATCVLVSEEDKNAIIVEPEKRGKYVVCFDPLDGSSNIDCLVSIGTIFGIYRKNSTDEPSEKDALQPGRNLVAAGYALYGSATMLVLAAVNGVNCFMLDPAIGEFILVDRDVKIKKKGSIYSINEGYAKEFDPAITEYIQRKKFPPDNSAPYGARYVGSMVADVHRTLVYGGIFMYPANKKSPKGKLRLLYECNPMAYVMEKAGGLATTGKEAVLDIVPTDIHQRAPIILGSPEDVTELLEIYQKHAAK
Pig kidney FBPase M177A
  melting point, No Ligand: 54.2 (± 1.75) °C

B5: Y113A: pig kidney FBPase mutant, tyrosine to alanine, AMP-binding site (protein, UniProt P00636 2-338, looked up, variant Y113A)
Fructose-1,6-bisphosphatase 1: TDQAAFDTNIVTLTRFVMEEGRKARGTGEMTQLLNSLCTAVKAISTAVRKAGIAHLYGIAGSTNVTGDQVKKLDVLSNDLVINVLKSSFATCVLVSEEDKNAIIVEPEKRGKAVVCFDPLDGSSNIDCLVSIGTIFGIYRKNSTDEPSEKDALQPGRNLVAAGYALYGSATMLVLAMVNGVNCFMLDPAIGEFILVDRDVKIKKKGSIYSINEGYAKEFDPAITEYIQRKKFPPDNSAPYGARYVGSMVADVHRTLVYGGIFMYPANKKSPKGKLRLLYECNPMAYVMEKAGGLATTGKEAVLDIVPTDIHQRAPIILGSPEDVTELLEIYQKHAAK
Pig kidney FBPase Y113A; enzyme Y113A 5 µM
  melting point, No Ligand: 50.0 (± 2.25) °C
Pig kidney FBPase Y113A; enzyme Y113A
  decrease in melting temperature compared with WT: approximately 6 °

B6: L73A: pig kidney FBPase mutant Leu^73 to alanine, near PFE tetramer interface site (protein, UniProt P00636 2-338, looked up, variant L73A)
Fructose-1,6-bisphosphatase 1: TDQAAFDTNIVTLTRFVMEEGRKARGTGEMTQLLNSLCTAVKAISTAVRKAGIAHLYGIAGSTNVTGDQVKKADVLSNDLVINVLKSSFATCVLVSEEDKNAIIVEPEKRGKYVVCFDPLDGSSNIDCLVSIGTIFGIYRKNSTDEPSEKDALQPGRNLVAAGYALYGSATMLVLAMVNGVNCFMLDPAIGEFILVDRDVKIKKKGSIYSINEGYAKEFDPAITEYIQRKKFPPDNSAPYGARYVGSMVADVHRTLVYGGIFMYPANKKSPKGKLRLLYECNPMAYVMEKAGGLATTGKEAVLDIVPTDIHQRAPIILGSPEDVTELLEIYQKHAAK
Pig kidney FBPase L73A
  melting point, No Ligand: 55.8 (± 2.50) °C

B7: M248D: pig kidney FBPase active site mutant Met^248 to aspartic acid (protein, UniProt P00636 2-338, looked up, variant M248D)
Fructose-1,6-bisphosphatase 1: TDQAAFDTNIVTLTRFVMEEGRKARGTGEMTQLLNSLCTAVKAISTAVRKAGIAHLYGIAGSTNVTGDQVKKLDVLSNDLVINVLKSSFATCVLVSEEDKNAIIVEPEKRGKYVVCFDPLDGSSNIDCLVSIGTIFGIYRKNSTDEPSEKDALQPGRNLVAAGYALYGSATMLVLAMVNGVNCFMLDPAIGEFILVDRDVKIKKKGSIYSINEGYAKEFDPAITEYIQRKKFPPDNSAPYGARYVGSDVADVHRTLVYGGIFMYPANKKSPKGKLRLLYECNPMAYVMEKAGGLATTGKEAVLDIVPTDIHQRAPIILGSPEDVTELLEIYQKHAAK
Pig kidney FBPase M248D
  melting point, No Ligand: 62.0 (± 1.25) °C
